Measurements from patent US20190161555A1 (ALLIGATOR BIOSCIENCE, published 2019).
Substitutions are numbered along the chain they refer to.

T1: Construct 84: full length OX40 (human, UniProt P43489 29-277)
T1 construct: whole, on cells
T1 sequence (looked up): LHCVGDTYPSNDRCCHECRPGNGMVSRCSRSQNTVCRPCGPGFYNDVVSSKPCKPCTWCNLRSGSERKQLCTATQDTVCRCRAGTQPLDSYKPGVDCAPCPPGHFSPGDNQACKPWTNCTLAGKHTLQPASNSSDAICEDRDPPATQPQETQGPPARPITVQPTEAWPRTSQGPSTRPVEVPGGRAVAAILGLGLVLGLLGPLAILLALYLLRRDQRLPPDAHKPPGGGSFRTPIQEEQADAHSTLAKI

T2: murine OX40 (murine, UniProt P47741 20-211, limits assumed)
T2 construct: also called mouse OX40
T2 sequence (looked up): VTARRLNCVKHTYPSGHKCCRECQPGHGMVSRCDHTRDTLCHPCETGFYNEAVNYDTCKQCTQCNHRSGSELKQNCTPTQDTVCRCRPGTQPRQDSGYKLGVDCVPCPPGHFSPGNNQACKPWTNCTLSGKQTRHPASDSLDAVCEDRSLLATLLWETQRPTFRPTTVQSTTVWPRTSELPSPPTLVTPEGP

T3: Human OX40 (R&D Systems, 3388-OX) (human, UniProt P43489 29-216)
T3 construct: bought; also called OX40-Fc; Human OX40 (R&D systems, #3358_OX)
T3 sequence (looked up): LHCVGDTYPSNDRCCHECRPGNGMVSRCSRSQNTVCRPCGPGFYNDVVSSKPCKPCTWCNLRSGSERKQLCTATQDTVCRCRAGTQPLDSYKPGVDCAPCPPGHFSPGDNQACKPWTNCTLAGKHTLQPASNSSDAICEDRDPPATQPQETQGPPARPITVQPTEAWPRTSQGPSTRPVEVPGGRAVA

T4: human OX40 overexpressed on CHO cells (human, UniProt P43489 29-214; P25942 194-277)
T4 construct: extracellular domain;domain: transmembrane and intracellular part; also called hOX40; huOX40 (CHO)
T4 sequence (looked up): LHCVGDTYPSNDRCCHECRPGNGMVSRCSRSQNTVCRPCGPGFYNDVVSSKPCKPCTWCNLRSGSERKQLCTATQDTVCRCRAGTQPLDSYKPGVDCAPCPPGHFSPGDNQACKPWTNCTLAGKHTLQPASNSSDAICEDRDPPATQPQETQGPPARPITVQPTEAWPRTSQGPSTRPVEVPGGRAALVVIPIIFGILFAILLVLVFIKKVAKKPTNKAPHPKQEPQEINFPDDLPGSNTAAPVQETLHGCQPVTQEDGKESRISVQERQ

T5: 5T4-Fc (human, UniProt Q13641 32-355, limits assumed)
T5 construct: obtained from Peter L. Stern, University of Manchester; also called h5T4-Fc; recombinant 5T4
T5 sequence (looked up): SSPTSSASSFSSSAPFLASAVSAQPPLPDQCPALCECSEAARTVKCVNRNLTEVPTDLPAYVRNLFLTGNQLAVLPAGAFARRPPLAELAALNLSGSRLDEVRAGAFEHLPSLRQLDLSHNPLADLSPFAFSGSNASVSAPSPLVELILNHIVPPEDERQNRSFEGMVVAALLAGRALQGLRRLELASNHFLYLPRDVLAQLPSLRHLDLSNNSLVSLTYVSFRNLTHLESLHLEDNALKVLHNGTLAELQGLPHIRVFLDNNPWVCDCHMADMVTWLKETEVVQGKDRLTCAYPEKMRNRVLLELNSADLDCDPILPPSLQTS

B1: 1164/1135 (antibody, V domains shown)
VH: EVQLLESGGGLVQPGGSLRLSCAASGFTFYGSSMYWVRQAPGKGLEWVSGIYSSGGYTSYADSVKGRFTISRDNSKNTLYLQMNSLRAEDTAVYYCARGVPHGYFDYWGQGTLVTVSS
VL: not shown
notes: OX40 antibody, tested as IgG
B2: 1524/1525 (antibody, V domains shown)
VH: EVQLLESGGGLVQPGGSLRLSCAASGFTFGSYYMGWVRQAPGKGLEWVSSIGSYYGYTYYADSVKGRFTISRDNSKNTLYLQMNSLRAEDTAVYYCARHDYGALDYWGQGTLVTVSS
VL: DIQMTQSPSSLSASVGDRVTITCRASQSISSYLNWYQQKPGKAPKLLIYAASSLQSGVPSRFSGSGSGTDFTLTISSLQPEDFATYYCQQYGPSGLFTFGQGTKLEIK
notes: OX40 antibody, tested as IgG
B3: 1166/1167 (antibody, V domains shown)
VH: EVQLLESGGGLVQPGGSLRLSCAASGFTFGGYYMSWVRQAPGKGLEWVSAISGSGGSTYYADSVKGRFTISRDNSKNTLYLQMNSLRAEDTAVYYCARYDYASMDYWGQGTLVTVSS
VL: B2 VL with G92Y, P93W, S94Y, F97S

Legend:
[1] = target: T1, Construct 84: full length OX40; experiment: flow cytometry, 293-F cells transfected with the construct
Method: The transfected cells were incubated with human OX40 antibodies, human OX40L (hOX40L, RnD Systems), mouse OX40L (mOX40L, RnD Systems) and controls for 30 min 4° C. and then detected with a-huIgG-PE (Jackson Immunoresearch) 30 min 4° C. Cells were analyzed with FACS Verse (BD Biosciences). Binding to the different chimeric constructs were calculated as relative (mean fluorescence intensity) MFI compared to the binding of the isotype control.

[2] = target: CD40 (Ancell) (UniProt P25942 21-193, limits assumed); experiment: ELISA, CD40 coated
Method: (§1) ELISA plates were coated with human OX40 (R&D Systems, 3388-OX), CD40 (Ancell), or CD137 (R&D Systems) at 0.1 or 0.5 μg/ml. The ELISA plates were washed with PBST and then blocked with PBST+2% BSA for 1 h at room temperature and then washed again with PBST. The antibodies were added in dilution series to the ELISA plates for 1 h at room temperature and then washed with PBST. Binding was detected using goat anti human kappa light chain HRP, incubated for 1 h at room temperature. SuperSignal Pico Luminescent was used as substrate and luminescence was measured using Fluostar Optima.

[3] = target: T2, murine OX40; experiment: ELISA
[4] = target: T3, Human OX40 (R&D Systems, 3388-OX); experiment: SPR Biacore, human OX40 amine-coupled on CM5, antibody injected, 1:1 Langmuir
Method: Human OX40 (R&D systems, #3358_OX) was immobilized to the Biacore™ sensor chip, CM5, using conventional amine coupling. The tested antibodies and controls (serially diluted 1/3 or 1/2 100-2 nM) were analyzed for binding in HBS-P (GE, #BR-1003-68) at a flow rate of […]. The association was followed for 3 minutes and the dissociation for 20 minutes. Regeneration was performed twice using 50 mM NaOH for 60 seconds. The kinetic parameters and the affinity constants were calculated using 1:1 Langmuir model with drifting baseline. […] The kinetic parameters and the affinity constants were calculated using BIAevaluation 4.1 software.

[5] = target: T3, Human OX40 (R&D Systems, 3388-OX); experiment: ELISA, plates coated with human OX40, IgG
Method: as §1

[6] = target: T4, human OX40 overexpressed on CHO cells; experiment: flow cytometry on CHO cells overexpressing human OX40, anti-huIgG-PE detection, MFI
Method: The extracellular part of human OX40 was fused to the transmembrane and intracellular part of hCD40 and cloned into pcDNA3.0. The vector was subsequently stably transfected into CHO cells. […] For the assay, the transfected cells were incubated with the test antibodies and controls for 30 min at 4° C. and then detected with a-huIgG-PE (Jackson Immunoresearch) 30 min 4° C. Cells were analyzed by flow cytometry with FACS Verse (BD Biosciences).

[7] = target: CD137 (R&D Systems) (UniProt Q07011 24-186, limits assumed); experiment: ELISA, CD137 coated
Method: as §1

[8] = target: T5, 5T4-Fc; experiment: dual ELISA: OX40-Fc coated, detection with biotinylated 5T4-Fc and streptavidin-HRP, luminescence
Method: A dual ELISA was used to detect simultaneous binding of the two targets by the bispecific antibodies. ELISA plates were coated with OX40-Fc (R&D systems, #3388-OX, 0.5 μg/ml) over night at 4° C. followed by blocking with PBST+2% bovine serum albumin (BSA) for 1 h at room temperature (RT). […] Biotinylated 5T4-Fc (0.5 μg/ml), followed by HRP-labelled streptavidin (Pierce #21126) were used for detection. Super signal ELISA Pico Chemiluminescent Substrate (Thermo Scientific, #37069) was used as substrate and luminescence was measured using FLUOstar Optima.

[9] = target: Macaca mulatta OX40 on HEK cells (Macaca mulatta; human); experiment: flow cytometry, macOX40-HEK cells; ends of the 95% confidence interval
Method: For the assay, the transfected cells were incubated with the test antibodies and controls for 30 min at 4° C. and then detected with a-huIgG-PE (Jackson Immunoresearch) 30 min 4° C. Cells were analyzed by flow cytometry with FACS Verse (BD Biosciences).

Chain of CD137 (R&D Systems) (Q07011 24-186 limits assumed): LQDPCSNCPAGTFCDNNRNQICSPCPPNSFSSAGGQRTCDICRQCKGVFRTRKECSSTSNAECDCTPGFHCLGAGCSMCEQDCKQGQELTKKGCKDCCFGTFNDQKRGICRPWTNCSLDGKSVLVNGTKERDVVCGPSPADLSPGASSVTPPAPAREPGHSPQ
Chain of CD40 (Ancell) (P25942 21-193 limits assumed): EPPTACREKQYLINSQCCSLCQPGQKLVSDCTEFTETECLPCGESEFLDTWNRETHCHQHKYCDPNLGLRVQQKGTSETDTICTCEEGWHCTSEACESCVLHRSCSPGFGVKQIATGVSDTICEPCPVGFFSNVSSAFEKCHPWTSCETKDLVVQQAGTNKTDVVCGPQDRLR

Binder | relative MFI [1] [fold over isotype control] | binding result [2] | binding result [3] | Kd [4] [nM] | koff [4] [s⁻¹] | kon [4] [M⁻¹ s⁻¹] | EC50 [5] [nM] | EC50 (read off the curve) [6] [µg/mL] | binding result [7] | binding result [8] | EC50 [9] [µg/mL]
B1 | 27.5 | no binding | no binding | 0.308 | 7.73e-05 | 251000 | < 1 | ~0.01 | no binding | – | –
B2 | 31.4 | no binding | no binding | 0.811 | 0.00139 | 1.71e+06 | < 1 | ~0.05 | no binding | – | –
B3 | – | no binding | no binding | – | – | – | – | – | no binding | no binding (tested: about 80 nM (log[conc ab] 1.9)) | 0.16 to 0.242
